Measured values published in patent US11046988B2, “Process for the modification of a glycoprotein using a β-(1,4)-N-acetylgalactosaminyl transferase or a mutant thereof” (Synaffix B.V., priority 2014, dated 2021).

System: trimmed trastuzumab (core GlcNAc(Fuc) / core GlcNAc, glycan of formula (1))
Experiment: Glycosyltransfer of sugar derivative to trimmed (Endo S deglycosylated) trastuzumab, MS analysis
Type: biochemical
Conditions: for major heavy chain product, F2-GalNAz transfer to core GlcNAc(Fuc)-substituted trastuzumab: UDP-F2-GalNAz 0.4 mM, GalNAcT 1 mg/mL, 10 mM MnCl2, pH 8.0, 16 hours, 30° C.; for cumulative conversions of the major and minor product, F2-GalNAz transfer: UDP-F2-GalNAz (18) 1 mM, enzyme 0.25 mg/mL
Experimental: Trimming of IgG glycans was performed using Endo S from Streptococcus pyogenes (commercially available from Genovis, Lund, Sweden). The IgG (10 mg/mL) was incubated with Endo S (40 U/mL) in 25 mM Tris pH 8.0 for approximately 16 hours at 37° C. The deglycosylated IgG was concentrated and washed with 10 mM MnCl2 and 25 mM Tris-HCl pH 8.0 using an Amicon Ultra-0.5, Ultracel-10 Membrane (Millipore).
Trastuzumab was subjected to the trimming protocol above. Analysis of the trimmed antibody was performed on a JEOL AccuToF equipped with an Agilent 1100 HPLC. Samples (2 μL) were reduced with DTT (2 μL) during 10 min and subsequently diluted with H2O (40 μL) prior to injection. […] The two peaks of heavy chain belonged to one major product (49496 Da, 90% of total heavy chain), resulting from core GlcNAc(Fuc) substituted trastuzumab, and a minor product (49351 Da, ±10% of total heavy chain), resulting from core GlcNac substituted trastuzumab. This is an example of a glycoprotein comprising a glycan according to formula (1).
A solution of 50 μg (modified) IgG, 1 M Tris-HCl pH 8.0, 1 mM EDTA and 30 mM DTT with a total volume of approximately 70 μL was incubated for 20 minutes at 37° C. to reduce the disulfide bridges allowing to analyze both light and heavy chain. If present, azide-functionalities are reduced to amines under these conditions. Reduced samples were washed trice with milliQ using an Amicon Ultra-0.5, Ultracel-10 Membrane (Millipore) and concentrated to 10 μM (modified) IgG. The reduced IgG was analyzed by electrospray ionization time-of-flight (ESI-TOF) on a JEOL AccuTOF. Deconvoluted spectra were obtained using Magtran software.
Enzymatic introduction of galactose derivative (e.g. azido-containing sugar) onto IgG was effected with a GalNAc-transferase or a mutant thereof. The deglycosylated IgG (prepared as described above, 10 mg/mL) was incubated with a modified UDP-galactose derivative (e.g. an azido-modified sugar-UDP derivative) (0.4 mM) and GalNAcT (1 mg/mL) in 10 mM MnCl2 and 25 mM Tris-HCl pH 8.0 for 16 hours at 30° C. The functionalized IgG (e.g. azido-functionalized IgG) was incubated with protein A agarose (40 μL per mg IgG) for 2 hours at 4° C. The protein A agarose was washed three times with PBS and the IgG was eluted with 100 mM glycine-HCl pH 2.7. The eluted IgG was neutralized with 1 M Tris-HCl pH 8.0 and concentrated and washed with PBS using an Amicon Ultra-0.5, Ultracel-10 Membrane (Millipore) to a concentration of 15-20 mg/mL.
Enzymatic introduction of galactose derivative (e.g. thio-containing sugar 21) onto IgG was effected with a GalNAc-transferase or a mutant thereof. The deglycosylated IgG (prepared as described above, 10 mg/mL) was incubated with a modified UDP-galactose derivative (e.g. an thio-modified sugar-UDP derivative) (2 mM) and GalNAcT (0.2 mg/mL) in 10 mM MnCl2 and 50 mM Tris-HCl pH 6.0 for 16 hours at 30° C. The functionalized IgG (e.g. thio-functionalized trastuzumab) was incubated with protein A agarose (40 μL per mg IgG) for 1 hours at rt. The protein A agarose was washed three times with TBS (pH 6.0) and the IgG was eluted with 100 mM glycine-HCl pH 2.5. The eluted IgG was neutralized with 1 M Tris-HCl pH 7.0 and concentrated and washed with 50 mM Tris-HCl pH 6.0 using an Amicon Ultra-0.5, Ultracel-10 Membrane (Millipore) to a concentration of 15-20 mg/mL.

B1: AsGalNAcT: truncated Ascaris suum β-(1,4)-GalNAcT, amino acids 30-383 of SEQ ID NO: 3 (SEQ ID NO: 7) (protein)
chain: DYSFWSPAFIISAPKTLTTLQPFSQSTSTNDLAVSALESVEFSMLDNSSILHASDNWTNDELVMRAQNENLQLCPMTPPALVGPIKVWMDAPSFAELERLYPFLEPGGHGMPTACRARHRVAIVVPYRDRESHLRTFLHNLHSLLTKQQLDYAIFVVEQTANETFNRAKLMNVGYAEAIRLYDWRCFIFHDVDLLPEDDRNLYSCPDEPRHMSVAVDKFNYKLPYGSIFGGISALTREQFEGINGFSNDYWGWGGEDDDLSTRVTLAGYKISRYPAEIARYKMIKHNSEKKNPVNRCRYKLMSATKSRWRNDGLSSLSYDLISLGRLPLYTHIKVDLLEKQSRRYLRTHGFPTC
modifications: AsGalNAcT (30-383)
major heavy chain product, F2-GalNAz transfer to core GlcNAc(Fuc)-substituted trastuzumab: approximately 90 % of total heavy chain
major product, GalNButN3 transfer to core GlcNAc(Fuc) substituted trastuzumab (UDP-GalNButN3 0.7 mM, AsGalNAcT(wt) 0.2 mg/mL, overnight): 50 % of total heavy chain
major product, GalNProSH transfer to core GlcNAc(Fuc) substituted trastuzumab (UDP-GalNProSH 2 mM, AsGalNAcT 0.2 mg/mL, overnight): 95 % of total heavy chain
major product, GalNPropN3 transfer to core GlcNAc(Fuc) substituted trastuzumab (UDP-GalNPropN3 0.7 mM, AsGalNAcT 0.2 mg/mL, overnight): 70 % of total heavy chain

B2: TnGalNAcT(wt): wild-type TnGalNAcT compared with the mutants; probably His6-TnGalNAcT(33-421), SEQ ID NO: 49, from E. coli (protein)
chain: MGSSHHHHHHSSGLVPRGSHMSPLRTYLYTPLYNATQPTLRNVERLAANWPKKIPSNYIEDSEEYSIKNISLSNHTTRASVVHPPSSITETASKLDKNMTIQDGAFAMISPTPLLITKLMDSIKSYVTTEDGVKKAEAVVTLPLCDSMPPDLGPITLNKTELELEWVEKKFPEVEWGGRYSPPNCTARHRVAIIVPYRDRQQHLAIFLNHMHPFLMKQQIEYGIFIVEQEGNKDFNRAKLMNVGFVESQKLVAEGWQCFVFHDIDLLPLDTRNLYSCPRQPRHMSASIDKLHFKLPYEDIFGGVSAMTLEQFTRVNGFSNKYWGWGGEDDDMSYRLKKINYHIARYKMSIARYAMLDHKKSTPNPKRYQLLSQTSKTFQKDGLSTLEYELVQVVQYHLYTHILVNIDERS
modifications: His6-TnGalNAcT(33-421)
cumulative conversions of the major and minor product, F2-GalNAz transfer (overnight): 95%
cumulative conversions of the major and minor product, F2-GalNBzN3 transfer (UDP-F2-GalNBzN3 (24) 1 mM, enzyme 0.5 mg/mL, overnight): 14%

B3: TnGalNAcT(W336V): T. ni GalNAcT mutant, tryptophan 336 to valine, SEQ ID NO: 52 (protein)
chain: MGSSHHHHHHSSGLVPRGSHMSPLRTYLYTPLYNATQPTLRNVERLAANWPKKIPSNYIEDSEEYSIKNISLSNHTTRASVVHPPSSITETASKLDKNMTIQDGAFAMISPTPLLITKLMDSIKSYVTTEDGVKKAEAVVTLPLCDSMPPDLGPITLNKTELELEWVEKKFPEVEWGGRYSPPNCTARHRVAIIVPYRDRQQHLAIFLNHMHPFLMKQQIEYGIFIVEQEGNKDFNRAKLMNVGFVESQKLVAEGWQCFVFHDIDLLPLDTRNLYSCPRQPRHMSASIDKLHFKLPYEDIFGGVSAMTLEQFTRVNGFSNKYWGVGGEDDDMSYRLKKINYHIARYKMSIARYAMLDHKKSTPNPKRYQLLSQTSKTFQKDGLSTLEYELVQVVQYHLYTHILVNIDERS
modifications: His6-TnGalNAcT(33-421; W336V)
cumulative conversions of the major and minor product, F2-GalNAz transfer (overnight): 27%

B4: DmGalNAcT: truncated Drosophila melanogaster β-(1,4)-GalNAcT, amino acids 47-403 of SEQ ID NO: 5 (SEQ ID NO: 9) (protein)
chain: HKYAHIYGNASSDGAGGSEASRLPASPLALSKDRERDQELNGGPNSTIRTVIATANFTSIPQDLTRFLLGTKKFLPPRQKSTSALLANCTDPDPRDGGPITPNTTLESLDVIEAELGPLLRPGGAFEPENCNAQHHVAIVVPFRDRYAHLLLFLRNIHPFLMKQRIAYRIFIVEQTNGKPFNRAAMMNIGYLEALKLYQWDCFIFHDVDLLPLDDRNLYNCPRQPRHMSVAIDTLNFRLPYRSIFGGVSAMTREHFQAVNGFSNSFFGWGGEDDDMSNRLKHANLFISRYPVNIARYKMLKHQKEKANPKRYENLQNGMSKIEQDGINSIKYSIYSIKQFPTFTWYLAELKNSERKS
modifications: DmGalNAcT (47-403)
major heavy chain product, F2-GalNAz transfer to core GlcNAc(Fuc)-substituted trastuzumab: approximately 90 % of total heavy chain
